Measured values taken from article PMC12823420.

Key:
[1] = biological target: ALYREF N-UBM peptide, biotinylated (human); assay: grating-coupled interferometry (GCI); biotinylated UBM or UCM peptides captured on a streptavidin chip; UAP56 injected; 25 mM HEPES pH 7.9, 50 mM KCl, 1 mM MgCl2, 1 mM TCEP, 25 °C; one-to-one model; UCM peptides also with AMP-PNP or AMP-PNP and 15 U RNA
[2] = biological target: the THO complex (recombinant, surface-immobilized; tetramer, dimer or monomer, not told apart in the sentence); assay: grating-coupled interferometry (GCI); V5-tagged THO complex captured on an anti-V5 chip; UAP56 injected in a 1:2 series from 5 μM, alone or with only 1 mM ATP or only 200 μM 15 U RNA; 25 mM HEPES pH 7.9, 50 mM KCl, 1 mM MgCl2, 1 mM TCEP, 25 °C; one-to-one model
[3] = biological target: UAP56;SARNP (Homo sapiens;Homo sapiens) (UniProt Q13838); assay: pull-down; details: 1 mM AMP-PNP; UAP56 bound with SARNP set to 100%; GCI: 25 mM HEPES pH 7.9, 50 mM KCl, 1 mM MgCl2, 1 mM TCEP, 1 mM ATP, 25 C; AdML pull-down: 20 mM HEPES pH 7.9, 100 mM KCl, 2 mM MgCl2, 5% glycerol, 0.1% …
[4] = biological target: UAP56-UCM-1-N-UBM fusion (Homo sapiens) (UniProt Q13838+P82979+Q86V81); assay: GCI; details: 1 mM ATP, RNA immobilized, GCI: 25 mM HEPES pH 7.9, 50 mM KCl, 1 mM MgCl2, 1 mM TCEP, 25 C, AdML pull-down: 20 mM HEPES pH 7.9, 100 mM KCl, 2 mM MgCl2, 5% glycerol, 0.1% …

UAP56 (from UniProt Q13838 1-428) (enzyme)
Kd [1]: 28000 nM | Kd [2]: 240 to 390 nM

AdML RNA with MS2 loops, 450 nt
binding signal [3]: 100%

UUUUUUUUUUUUUUU [15U RNA]
Kd [4]: 120 nM
